For the experiment, the target named is T1, TDP-43 from healthy human brain tissue (human, UniProt Q13148 1-414).
T1 construct: also called healthy TDP-43; healthy IP TDP-43
The experiment is described as follows: phage ELISA on human brain tissue.

T1 sequence (Q13148 whole entry): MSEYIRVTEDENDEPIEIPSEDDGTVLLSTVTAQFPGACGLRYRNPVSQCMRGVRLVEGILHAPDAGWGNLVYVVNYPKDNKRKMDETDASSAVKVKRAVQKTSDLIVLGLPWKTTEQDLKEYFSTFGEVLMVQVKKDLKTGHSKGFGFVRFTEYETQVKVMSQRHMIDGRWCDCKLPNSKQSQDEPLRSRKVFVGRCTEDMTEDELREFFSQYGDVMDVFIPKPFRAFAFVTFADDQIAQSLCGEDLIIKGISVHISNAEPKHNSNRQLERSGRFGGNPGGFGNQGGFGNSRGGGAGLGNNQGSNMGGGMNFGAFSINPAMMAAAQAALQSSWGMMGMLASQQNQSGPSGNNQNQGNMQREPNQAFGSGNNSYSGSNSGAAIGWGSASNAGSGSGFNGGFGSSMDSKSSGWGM

B1: TDP-43 monomer clone #5 (scFv)
scFv: MAEVQLLESGGGLVRPGGSLRLSCAASGFTFSSYAMSWVRQAPGKGLEWVSDIANTGDATGYADSVKGRFTISRDNSKNTLYLQMNSLRAEDTAVYYCAKTGAAFDYWGQGTLVTVSSGGGGSGGGGSGGGGSTDIQMTQSPSSLSASVGDRVTITCRASQSISSYLNWYQQKPGKAPKLLIYAASTLQSGVPSRFSGSGSGTDFTLTISSLQPEDFATYYCQQSSSDPATFGQGTKVEIKRAA
notes: Tested as scFv attached to a phage particle, tagged with a signal moiety when used for detection; also called monomer phage #5
On to B1, for which the binding result is on record as “binds”.

The values above are taken from patent US20260194540A1 (ARIZONA BOARD OF REGENTS ON BEHALF OF ARIZONA STATE …, published 2026).
